Assay results from patent US10801046B2, “Methods and materials for biosynthesizing multifunctional, multivariate molecules via carbon chain modification” (INVISTA NORTH AMERICA S.A.R.L., priority 2016, dated 2020).

Assay: Carboxylate reductase activity, 7-hydroxyheptanoate to 7-hydroxyheptanal, NADPH consumption at 340 nm
Assay type: biochemical
Conditions: enhanced by gene product of sfp, 20 min, against empty vector control, FIG. 44
Method: A sequence encoding a His-tag was added to the genes from Mycobacterium marinum, Mycobacterium smegmatis, Segniliparus rugosus, Mycobacterium smegmatis, Mycobacterium massiliense, and Segniliparus rotundus that encode the carboxylate reductases of SEQ ID NOs: 25 (GenBank Accession No. ACC40567.1), 27 (GenBank Accession No. ABK75684.1), 29 (GenBank Accession No. ABK71854.1), 31 (GenBank Accession No. EFV11917.1), 37 (GenBank Accession No. EIV11143.1), and 38 (GenBank Accession No. ADG98140.1) such that N-terminal HIS tagged carboxylate reductases could be produced. Each of the modified genes was cloned into a pET Duet expression vector alongside a sfp gene encoding a His-tagged phosphopantetheine transferase from Bacillus subtilis, both under control of the T7 promoter.
Each expression vector was transformed into a BL21[DE3] E. coli host and the resulting recombinant E. coli strains were cultivated at 37° C. in a 250 mL shake flask culture containing 50 mL LB media and antibiotic selection pressure, with shaking at 230 rpm. Each culture was induced overnight at 37° C. using an auto-induction media.
The pellet from each induced shake flask culture was harvested via centrifugation. Each pellet was resuspended and lysed via sonication. The cell debris was separated from the supernatant via centrifugation. The carboxylate reductases and phosphopantetheine transferase were purified from the supernatant using Ni-affinity chromatography, diluted 10-fold into 50 mM HEPES buffer (pH=7.5) and concentrated via ultrafiltration.
Enzyme activity (i.e., 7-hydroxyheptanoate to 7-hydroxyheptanal) assays were performed in triplicate in a buffer composed of a final concentration of 50 mM HEPES buffer (pH=7.5), 2 mM […], 10 mM MgCl2, 1 mM ATP, and 1 mM NADPH. Each enzyme activity assay reaction was initiated by adding purified carboxylate reductase and phosphopantetheine transferase or the empty vector control to the assay buffer containing the 7-hydroxyheptanoate and then incubated at room temperature for 20 min. The consumption of NADPH was monitored by absorbance at 340 nm.

Molecule	acceptance of 7-hydroxyheptanoate as substrate, forming 7-hydroxyheptanal
SEQ ID NO: 25: Mycobacterium marinum carboxylate reductase (protein, Mycobacterium marinum (strain ATCC BAA-535 / M), Mycobacterium marinum carboxylate reductase) MSPITREERLERRIQDLYANDPQFAAAKPATAITAAIERPGLPLPQIIETVMTGYADRPALAQRSVEFVTDAGTGHTTLRLLPHFETISYGELWDRISALADVLSTEQTVKPGDRVCLLGFNSVDYATIDMTLARLGAVAVPLQTSAAITQLQPIVAETQPTMIAASVDALADATELALSGQTATRVLVFDHHRQVDAHRAAVESARERLAGSAVVETLAEAIARGDVPRGASAGSAPGTDVSDDSLALLIYTSGSTGAPKGAMYPRRNVATFWRKRTWFEGGYEPSITLNFMPMSHVMGRQILYGTLCNGGTAYFVAKSDLSTLFEDLALVRPTELTFVPRVWDMVFDEFQSEVDRRLVDGADRVALEAQVKAEIRNDVLGGRYTSALTGSAPISDEMKAWVEELLDMHLVEGYGSTEAGMILIDGAIRRPAVLDYKLVDVPDLGYFLTDRPHPRGELLVKTDSLFPGYYQRAEVTADVFDADGFYRTGDIMAEVGPEQFVYLDRRNNVLKLSQGEFVTVSKLEAVFGDSPLVRQIYIYGNSARAYLLAVIVPTQEALDAVPVEELKARLGDSLQEVAKAAGLQSYEIPRDFIIETTPWTLENGLLTGIRKLARPQLKKHYGELLEQIYTDLAHGQADELRSLRQSGADAPVLVTVCRAAAALLGGSASDVQPDAHFTDLGGDSLSALSFTNLLHEIFDIEVPVGVIVSPANDLQALADYVEAARKPGSSRPTFASVHGASNGQVTEVHAGDLSLDKFIDAATLAEAPRLPAANTQVRTVLLTGATGFLGRYLALEWLERMDLVDGKLICLVRAKSDTEARARLDKTFDSGDPELLAHYRALAGDHLEVLAGDKGEADLGLDRQTWQRLADTVDLIVDPAALVNHVLPYSQLFGPNALGTAELLRLALTSKIKPYSYTSTIGVADQIPPSAFTEDADIRVISATRAVDDSYANGYSNSKWAGEVLLREAHDLCGLPVAVFRCDMILADTTWAGQLNVPDMFTRMILSLAATGIAPGSFYELAADGARQRAHYDGLPVEFIAEAISTLGAQSQDGFHTYHVMNPYDDGIGLDEFVDWLNESGCPIQRIADYGDWLQRFETALRALPDRQRHSSLLPLLHNYRQPERPVRGSIAPTDRFRAAVQEAKIGPDKDIPHVGAPIIVKYVSDLRLLGLL	accepted 7-hydroxyheptanoate as substrate
SEQ ID NO: 27: Mycobacterium smegmatis fatty-acid-CoA ligase with carboxylate reductase activity (protein, Mycobacterium smegmatis (strain ATCC 700084 / mc(2)155)) MTIETREDRFNRRIDHLFETDPQFAAARPDEAISAAAADPELRLPAAVKQILAGYADRPALGKRAVEFVTDEEGRTTAKLLPRFDTITYRQLAGRIQAVTNAWHNHPVNAGDRVAILGFTSVDYTTIDIALLELGAVSVPLQTSAPVAQLQPIVAETEPKVIASSVDFLADAVALVESGPAPSRLVVFDYSHEVDDQREAFEAAKGKLAGTGVVVETITDALDRGRSLADAPLYVPDEADPLTLLIYTSGSTGTPKGAMYPESKTATMWQAGSKARWDETLGVMPSITLNFMPMSHVMGRGILCSTLASGGTAYFAARSDLSTFLEDLALVRPTQLNFVPRIWDMLFQEYQSRLDNRRAEGSEDRAEAAVLEEVRTQLLGGRFVSALTGSAPISAEMKSWVEDLLDMHLLEGYGSTEAGAVFIDGQIQRPPVIDYKLVDVPDLGYFATDRPYPRGELLVKSEQMFPGYYKRPEITAEMFDEDGYYRTGDIVAELGPDHLEYLDRRNNVLKLSQGEFVTVSKLEAVFGDSPLVRQIYVYGNSARSYLLAVVVPTEEALSRWDGDELKSRISDSLQDAARAAGLQSYEIPRDFLVETTPFTLENGLLTGIRKLARPKLKAHYGERLEQLYTDLAEGQANELRELRRNGADRPVVETVSRAAVALLGASVTDLRSDAHFTDLGGDSLSALSFSNLLHEIFDVDVPVGVIVSPATDLAGVAAYIEGELRGSKRPTYASVHGRDATEVRARDLALGKFIDAKTLSAAPGLPRSGTEIRTVLLTGATGFLGRYLALEWLERMDLVDGKVICLVRARSDDEARARLDATFDTGDATLLEHYRALAADHLEVIAGDKGEADLGLDHDTWQRLADTVDLIVDPAALVNHVLPYSQMFGPNALGTAELIRIALTTTIKPYVYVSTIGVGQGISPEAFVEDADIREISATRRVDDSYANGYGNSKWAGEVLLREAHDWCGLPVSVFRCDMILADTTYSGQLNLPDMFTRLMLSLVATGIAPGSFYELDADGNRQRAHYDGLPVEFIAEAISTIGSQVTDGFETFHVMNPYDDGIGLDEYVDWLIEAGYPVHRVDDYATWLSRFETALRALPERQRQASLLPLLHNYQQPSPPVCGAMAPTDRFRAAVQDAKIGPDKDIPHVTADVIVKYISNLQMLGLL	accepted 7-hydroxyheptanoate as substrate
